# Changes are numbered by the printed parent chain. Names may count otherwise.
# B1: L640A, M779L (protein)
# chain: MDYKDKALNDLRNVYADFDSLPLDFRQILIKDRATLLQKEDVEKKILERQEDAKKYAEYLKQSEIPERISLPNIKRHKGVSISFEETSEDMVLEPRPFIFDGLNIRCFRRETIFSLKNKILNMVKESSSFKNVSRQSVSFMYFKIFNKGKVIASTKSVNIYEDKIDERLEDLCNNFDDVLKKIIDVTYGYESLFVSETYSYVIFYAKSIYFPQPRCVNNWGNNIPNILTFDSFKLFTANKNNVSCIKQCSRFLWQKDFNTLEEMIEYKNGNICIVTPQLHINDVRDIKSFNDIRLYSESPIKTFSVIDNTITYLFYFKEHLGVIFNITKSRHDRRVTKFSPLSKFSDVKNITVCFDIESYFDPEKESNQVNIPFICCASIIYNKVIGNIVDFEGRDCVAQMIEYVVDICGELNISSVELIAHNGGGYDFHYILSSMYNPAAIKNILIRNNSFISFNFAHDGVKFSVKDSYSFLLCSLANASKAFLNEETFKKTDFPHHDLKTADDLYKVYKEWSSVNTEINHVVEKEKLLITSEHIVNFTKNDKSKTLIEWSKDYCRNDVLVLSKVWLEFKNAVEDIFNCELVDQTMTLAGLSYKLFQANMPFDVELRHPNKEDYFNMREALIGGRCISVNGIYKDVLCADVKSLYPASMAFYDQPYGSFKRVSSRPKDELGIYYVRVTPNRNNKSNFFPIRSHNKITYNNFEESTYIAWYTNVDIDIGLSEGHNIEYIPFDSYGNIGYSWSKKGKIFEKYIKDVLYKLKIKYEKQNNKVKRNVIKIILNSLWGKFAQKWVNFEYFIKSEDDIDFESEEAYKIWDTDFMLIKKIKESTYSSKPIQNGVFTLSWARYHMKSIWDAGAKEGAECIYSDTDSIFVHKEHFKKNAKFMLNGLKVPIIGSEVGQLELECEFDKLLCAGKKQYMGFYTYFQDGKPCIKEKKRFKGIPSNYIIPELYAHLLSGADKEAKIQFLKFRREWGSVKGYIENKTVKAT
# B2: F652L, I775A (protein)
# chain: B1 chain with A640L, F652L, I775A, L779M
# B3: L640G, I775A (protein)
# chain: B1 chain with A640G, I775A, L779M
# B4: I775A, K934W (protein)
# chain: B1 chain with A640L, I775A, L779M, K934W
# B5: I775A, F968T (protein)
# chain: B1 chain with A640L, I775A, L779M, F968T
# B6: L640G, I777K, W814N (protein)
# chain: B1 chain with A640G, I777K, L779M, W814N
# B7: I777K, V872I (protein)
# chain: B1 chain with A640L, I777K, L779M, V872I
# B8: I777A, V872I (protein)
# chain: B1 chain with A640L, I777A, L779M, V872I
# B9: I777K, F871Y (protein)
# chain: B1 chain with A640L, I777K, L779M, F871Y
# B10: I775A, F871Y (protein)
# chain: B1 chain with A640L, I775A, L779M, F871Y
# B11: Y653L, I777K (protein)
# chain: B1 chain with A640L, Y653L, I777K, L779M
# B12: L640G, I777A (protein)
# chain: B1 chain with A640G, I777A, L779M
# B13: I777K, W790L, K934W (protein)
# chain: B1 chain with A640L, I777K, L779M, W790L, K934W
# B14: I777A, L909F (protein)
# chain: B1 chain with A640L, I777A, L779M, L909F
# B15: I777A, L900S (protein)
# chain: B1 chain with A640L, I777A, L779M, L900S
# B16: I777A, K934W (protein)
# chain: B1 chain with A640L, I777A, L779M, K934W
# B17: L640Y, I777A (protein)
# chain: B1 chain with A640Y, I777A, L779M
# B18: Y653L, I775A (protein)
# chain: B1 chain with A640L, Y653L, I775A, L779M
# B19: L645M, I777K (protein)
# chain: B1 chain with A640L, L645M, I777K, L779M
# B20: L640N, I777A (protein)
# chain: B1 chain with A640N, I777A, L779M
# B21: Y653L, I777A (protein)
# chain: B1 chain with A640L, Y653L, I777A, L779M
# B22: L645M, M779L (protein)
# chain: B1 chain with A640L, L645M
# B23: I775A, L909F (protein)
# chain: B1 chain with A640L, I775A, L779M, L909F
# B24: I777A, F871Y (protein)
# chain: B1 chain with A640L, I777A, L779M, F871Y
# B25: I775A, L900S (protein)
# chain: B1 chain with A640L, I775A, L779M, L900S
# B26: G410L: TP-DNAP1 variant (protein)
# chain: B1 chain with G410L, A640L, L779M
# B27: G410Q: TP-DNAP1 variant (protein)
# chain: B1 chain with G410Q, A640L, L779M
# B28: G410M: TP-DNAP1 variant (protein)
# chain: B1 chain with G410M, A640L, L779M
# B29: S289K: TP-DNAP1 variant (protein, listed as Kluyveromyces lactis)
# chain: B1 chain with S289K, A640L, L779M
# B30: G410I: TP-DNAP1 variant (protein)
# chain: B1 chain with G410I, A640L, L779M
# B31: G410K: TP-DNAP1 variant (protein)
# chain: B1 chain with G410K, A640L, L779M
# B32: G410H: TP-DNAP1 variant (protein, listed as Kluyveromyces lactis)
# chain: B1 chain with G410H, A640L, L779M
# Tested on: p1-encoded leu2 (Q180*)
# Assay: Large-scale p1 fluctuation tests of p1-encoded leu2 (Q180*), per-base substitution rate
# Type: cell-based, S. cerevisiae
# Details: per-base substitution rate, p1-encoded leu2 (Q180*), large-scale fluctuation test
# Source text: All three TP-DNAP1 libraries were screened through small scale p1 fluctuation tests in a metastable S. cerevisiae strain, OR-Y24. OR-Y24 contains w.t. p1 and recombinant p1 that lacks w.t. TP-DNAP1, and instead, encodes a standardized fluorescence reporter of p1 copy number (Table 1), and a disabled version of the LEU2 selection marker (leu2 (Q180*)). As described previously (Ravikumar et al., 2014), leu2 (Q180*) contains a C→T mutation at base 538 in LEU2 at a site permissive to all single point mutants that generate missense mutations. Reversion to functional LEU2 can be detected on medium lacking leucine.
# Large-scale fluctuation tests of p1-encoded leu2 (Q180*) were performed to precisely determine per-base substitution rates for individually cloned or isolated TP-DNAP1 variants. Large-scale p1 fluctuation tests are performed similarly to small-scale p1 fluctuation tests, with several modifications. First, large-scale p1 fluctuation tests were typically performed with 36-48 replicates. For highly error-prone TP-DNAP1s obtained from later rounds of screening, fewer replicates (3-16) were used, which is sufficient for similar precision (Foster et al., 2006). Second, p1 copy number was determined by the flow cytometry method, described below. Third, cell titers were measured for each fluctuation test to estimate the average number of cells per culture. Cell resuspensions were diluted and plated on solid SC-UH medium, and colony counts were determined after incubation at 30° C. for 2-3 days. Alternatively, cell resuspensions were diluted and subject to an event-count measurement via flow cytometry. Fourth, inoculums of highly error-prone TP-DNAP 1 s occasionally contained pre-existing mutants, despite the 1:10,000 dilution, so mutant frequencies were estimated by plating pre-cultures on solid SC-UHLW, pH 5.8 medium. Plates were incubated for 2-3 days, in parallel with cultures grown for fluctuation tests. Pre-culture mutant titers were counted to estimate the number of replicates in the fluctuation test expected to contain pre-existing mutants (n). Revertants were counted from all replicates of the fluctuation tests, counts were sorted, and n replicates with the highest counts were omitted from calculations.
# To calculate per-base substitution rates, fluctuation data were analyzed by the maximum likelihood method, implemented using newton.LD.plating in rSalvador 1.7 (Zheng, 2017). Phenotypic mutation rates were calculated by normalizing to the average number of cells per culture. Phenotypic mutation rates were divided by the measured p1 copy number and by the number of ways leu2 (Q180*) can revert to LEU2 (2.33 for the ochre codon) to yield per-base substitution rates. 95% confidence intervals were similarly scaled by these factors. All data related to large-scale p1 fluctuation tests are fully described in Table 2.
row,Molecule,Mutation rate (s.p.b.)
1,B1,2.79 × 10^−9 s.p.b.
2,B2,6.08 × 10^−9 s.p.b.
3,B3,1.81 × 10^−8 s.p.b.
4,B4,3.59 × 10^−8 s.p.b.
5,B5,7.29 × 10^−8 s.p.b.
6,B6,2.63 × 10^−7 s.p.b.
7,B7,2.59 × 10^−8 s.p.b.
8,B8,1.34 × 10^−10 s.p.b.
9,B9,1.35 × 10^−6 s.p.b.
10,B10,4.73 × 10^−8 s.p.b.
11,B11,9.59 × 10^−8 s.p.b.
12,B12,9.28 × 10^−8 s.p.b.
13,B13,2.02 × 10^−7 s.p.b.
14,B14,1.07 × 10^−7 s.p.b.
15,B15,1.36 × 10^−7 s.p.b.
16,B16,1.86 × 10^−7 s.p.b.
17,B17,5.70 × 10^−8 s.p.b.
18,B18,9.70 × 10^−9 s.p.b.
19,B19,9.19 × 10^−9 s.p.b.
20,B20,3.04 × 10^−8 s.p.b.
21,B21,2.02 × 10^−8 s.p.b.
22,B22,4.99 × 10^−9 s.p.b.
23,B23,2.46 × 10^−8 s.p.b.
24,B24,2.57 × 10^−7 s.p.b.
25,B25,2.53 × 10^−8 s.p.b.

# Tested on: p1
# Assay: p1 copy number by p1-encoded mKate2 fluorescence
# Type: cell-based, S. cerevisiae
# Details: OR-Y24, measured in triplicate
# Method in brief: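 Copy number was inferred from p1-encoded mKate2 fluorescence in saturated OR-Y24 cultures (triplicate), calibrated linearly against qPCR of p1 leu2 relative to genomic LEU3.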
row,Molecule,Mean fold-increase over w.t. (p1 copy number) [fold]
1,B26,2.57
2,B27,2.2
3,B28,2.55
4,B29,2.02
5,B30,2.57
6,B31,2.53
7,B32,2.19

# — patent US20230242902A1, “A HIGHLY ERROR-PRONE […] R[…] FOR TARGETED CONTINUOUS EVOLUTION IN VIVO” (The Regents of the University of California, priority 2017, published 2023)
